The source of these data is PMC9750192.

Where “and” joins values, the source holds several entries; their conditions need not be identical. Identical values can stand only once. Like-named read-outs stand apart in the source and are kept apart here. Some results are limits rather than exact numbers.

Experiment [1] has as its target GMPCPP-stabilized HeLa cell microtubules (human (endogenous in HeLa)) (UniProt P68363). Kind of experiment: cryo-EM structure.
Experiment [2] shares this target. Put plainly: cryo-EM structure. This is another data set of the same source.
Experiment [3] has as its target Taxol-stabilized microtubules enriched in tyrosinated HeLa tubulin (human (endogenous in HeLa) | not stated) (UniProt P68363). Kind of experiment: single-molecule TIRF microscopy.
In experiment [4] the target is Taxol-stabilized microtubules enriched in detyrosinated HeLa tubulin (human (endogenous in HeLa) | not stated) (UniProt P68363). Put plainly: single-molecule TIRF microscopy.
Chain of Taxol-stabilized microtubules enriched in detyrosinated HeLa tubulin (human (endogenous in HeLa) | not stated) (P68363 1-450, chain 1 of 2): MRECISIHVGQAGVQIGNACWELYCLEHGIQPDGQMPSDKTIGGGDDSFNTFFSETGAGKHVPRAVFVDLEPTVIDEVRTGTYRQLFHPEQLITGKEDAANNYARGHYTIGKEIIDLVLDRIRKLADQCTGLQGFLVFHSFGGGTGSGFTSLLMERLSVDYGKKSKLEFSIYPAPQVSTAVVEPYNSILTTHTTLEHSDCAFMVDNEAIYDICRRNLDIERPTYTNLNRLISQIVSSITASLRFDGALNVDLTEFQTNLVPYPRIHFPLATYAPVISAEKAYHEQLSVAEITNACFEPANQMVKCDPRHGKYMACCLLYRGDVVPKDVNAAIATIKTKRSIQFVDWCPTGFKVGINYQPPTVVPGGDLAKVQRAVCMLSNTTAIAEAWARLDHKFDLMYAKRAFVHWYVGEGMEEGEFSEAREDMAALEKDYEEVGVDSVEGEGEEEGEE
Chain of Taxol-stabilized microtubules enriched in detyrosinated HeLa tubulin (human (endogenous in HeLa) | not stated) (P07437 whole entry, chain 2 of 2, further chain): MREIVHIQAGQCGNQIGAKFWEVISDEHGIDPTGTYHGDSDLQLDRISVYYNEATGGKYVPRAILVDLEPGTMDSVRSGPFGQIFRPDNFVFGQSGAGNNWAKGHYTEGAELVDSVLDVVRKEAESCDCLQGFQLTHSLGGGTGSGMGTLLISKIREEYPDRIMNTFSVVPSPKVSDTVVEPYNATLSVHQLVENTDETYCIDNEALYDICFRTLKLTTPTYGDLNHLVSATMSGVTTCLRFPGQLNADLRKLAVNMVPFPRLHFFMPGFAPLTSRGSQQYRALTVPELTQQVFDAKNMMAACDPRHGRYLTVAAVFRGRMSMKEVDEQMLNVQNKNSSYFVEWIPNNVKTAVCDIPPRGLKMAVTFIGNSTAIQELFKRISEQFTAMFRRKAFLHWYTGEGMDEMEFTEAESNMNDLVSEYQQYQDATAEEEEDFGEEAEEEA
Experiment [5] deals with Taxol-stabilized microtubules enriched in tyrosinated HeLa tubulin (human (endogenous in HeLa) | not stated) (UniProt P68363). Kind of experiment: single-molecule TIRF microscopy. This is another data set of the same source.
Chain of Taxol-stabilized microtubules enriched in tyrosinated HeLa tubulin (human (endogenous in HeLa) | not stated) (P68363 whole entry, chain 1 of 2): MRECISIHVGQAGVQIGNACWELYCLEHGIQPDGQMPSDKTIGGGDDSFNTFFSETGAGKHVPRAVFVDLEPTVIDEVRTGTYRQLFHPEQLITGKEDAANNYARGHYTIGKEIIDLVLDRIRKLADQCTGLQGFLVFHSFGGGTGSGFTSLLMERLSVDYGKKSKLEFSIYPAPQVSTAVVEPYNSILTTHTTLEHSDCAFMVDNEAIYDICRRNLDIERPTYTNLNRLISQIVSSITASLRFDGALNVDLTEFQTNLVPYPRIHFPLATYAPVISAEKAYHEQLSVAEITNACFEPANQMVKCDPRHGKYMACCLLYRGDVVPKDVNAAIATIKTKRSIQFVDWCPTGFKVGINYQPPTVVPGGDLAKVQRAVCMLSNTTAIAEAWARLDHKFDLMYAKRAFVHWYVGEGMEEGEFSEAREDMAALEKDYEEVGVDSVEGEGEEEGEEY
Chain of Taxol-stabilized microtubules enriched in tyrosinated HeLa tubulin (human (endogenous in HeLa) | not stated) (P07437 whole entry, chain 2 of 2, further chain): as the sequence (P07437 whole entry, chain 2 of 2, further chain) above
For experiment [6] the target is unchanged. Put plainly: single-molecule TIRF microscopy. The source holds these as a separate data set.
For experiment [7] the target is unchanged. Kind of experiment: single-molecule TIRF microscopy. The source holds these as a separate data set.
Experiment [8] has the same target. Put plainly: single-molecule TIRF microscopy. The source holds these as a separate data set.
Experiment [9] deals with Taxol-stabilized microtubules enriched in detyrosinated HeLa tubulin (human (endogenous in HeLa) | not stated) (UniProt P68363). Put plainly: single-molecule TIRF microscopy. The source holds these as a separate data set.

Chain of full-length sfGFP-VASH2–SVBP complex (Q86V25 whole entry): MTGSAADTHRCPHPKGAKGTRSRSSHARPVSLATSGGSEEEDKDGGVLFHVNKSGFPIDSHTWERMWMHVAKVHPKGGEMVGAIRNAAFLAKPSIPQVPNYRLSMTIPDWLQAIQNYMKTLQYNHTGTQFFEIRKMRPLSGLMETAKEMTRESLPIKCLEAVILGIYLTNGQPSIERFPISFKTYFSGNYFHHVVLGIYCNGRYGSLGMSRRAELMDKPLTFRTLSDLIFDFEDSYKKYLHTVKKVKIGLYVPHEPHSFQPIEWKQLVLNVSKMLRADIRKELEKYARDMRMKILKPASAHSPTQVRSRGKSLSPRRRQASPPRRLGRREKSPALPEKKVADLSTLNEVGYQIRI
Chain of full-length sfGFP-VASH2–SVBP complex (Q8N300 whole entry): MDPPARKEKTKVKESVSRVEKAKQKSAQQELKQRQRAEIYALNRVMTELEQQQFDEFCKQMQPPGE
Chain of full-length sfGFP-VASH1–SVBP complex (Q7L8A9 whole entry): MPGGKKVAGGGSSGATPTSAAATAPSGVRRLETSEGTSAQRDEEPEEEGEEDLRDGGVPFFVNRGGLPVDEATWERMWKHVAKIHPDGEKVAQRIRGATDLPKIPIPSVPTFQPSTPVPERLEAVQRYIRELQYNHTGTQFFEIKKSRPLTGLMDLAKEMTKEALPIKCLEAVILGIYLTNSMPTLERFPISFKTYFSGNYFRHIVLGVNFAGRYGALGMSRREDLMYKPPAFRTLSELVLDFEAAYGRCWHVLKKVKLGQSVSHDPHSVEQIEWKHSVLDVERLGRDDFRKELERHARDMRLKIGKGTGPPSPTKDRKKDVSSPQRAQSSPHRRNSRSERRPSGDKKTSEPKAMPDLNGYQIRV
Chain of full-length sfGFP-VASH1–SVBP complex (Q8N300 whole entry): as the sequence (Q8N300 whole entry) above

Consider “catalytically dead VASH2(Cys158Ala)–SVBP complex for cryo-EM (from UniProt Q86V25 1-355; Q8N300 1-66)”, for which the occupancy of the binding sites on the microtubule in experiment [1] is 40%; in experiment [2], 50.9%.
As to “catalytically dead full-length sfGFP-VASH1(C169A)–SVBP complex (from UniProt Q7L8A9-1 1-365; Q8N300 1-66)”, in experiment [3], the binding frequency (min-1.nM^−1.µm^−1) was determined as 80.4; the binding frequency (min^−1.nM^−1.µm^-1) stood at 132; the mean covering of the microtubule surface during a 45 s movie stood at 82%; the residence time τ was 1 s and 1.2 s. Further, the residence time τ in [4] was 0.6 s. The same substance displayed a binding frequency (min^−1.nM^−1.µm^-1) in experiment [5] of 86.4.
Regarding “catalytically dead full-length sfGFP-VASH2(C158A)–SVBP complex (from UniProt Q86V25-1 1-355; Q8N300 1-66)”, in [3], the binding frequency (min^−1.nM^−1.µm^-1) came to 13.9, the mean covering of the microtubule surface during a 45 s movie amounted to 28% and the residence time τ was > 14.6 s.
For the substance “dead VASH1 core domain (sfGFP-VASH1 57–307 C169A) in complex with SVBP (from UniProt Q7L8A9-1 57-307; Q8N300 1-66)”, the binding frequency (min-1.nM^−1.µm^−1) in [3] is 70.7.
As to “full-length sfGFP-VASH1–SVBP complex (from UniProt Q7L8A9-1 1-365; Q8N300 1-66)”, the values for the binding frequency (min^−1.nM^−1.µm^-1) in [3], in experiment [5] and in experiment [6] were 80.8, 51.6 and 3, respectively. In experiment [3], this substance came in with a mean covering of the microtubule surface during a 45 s movie of 75%. Moreover, the residence time τ in experiment [3] was 0.5 s and 0.8 s; in experiment [4], 0.5 s; in [5], 0.8 s; in experiment [6], 0.2 s; in experiment [7], 1.2 s.
In experiment [3], “full-length sfGFP-VASH2–SVBP complex (from UniProt Q86V25-1 1-355; Q8N300 1-66)” showed a binding frequency (min^−1.nM^−1.µm^-1) of 13. In experiment [3], this substance came in with a mean covering of the microtubule surface during a 45 s movie of 25%. The residence time τ is > 11 s in experiment [3]; 3.9 s in experiment [6]; > 12.9 s in experiment [7]; 0.9 s in experiment [8]; 0.6 s in experiment [9].
